The target in experiment [1] is T1, human Sp35, full-length, in cell lysate (immunoprecipitation, Western) (human, UniProt Q96FE5 40-620).
T1 construct: also called huSp35; hLINGO-1
T1 sequence: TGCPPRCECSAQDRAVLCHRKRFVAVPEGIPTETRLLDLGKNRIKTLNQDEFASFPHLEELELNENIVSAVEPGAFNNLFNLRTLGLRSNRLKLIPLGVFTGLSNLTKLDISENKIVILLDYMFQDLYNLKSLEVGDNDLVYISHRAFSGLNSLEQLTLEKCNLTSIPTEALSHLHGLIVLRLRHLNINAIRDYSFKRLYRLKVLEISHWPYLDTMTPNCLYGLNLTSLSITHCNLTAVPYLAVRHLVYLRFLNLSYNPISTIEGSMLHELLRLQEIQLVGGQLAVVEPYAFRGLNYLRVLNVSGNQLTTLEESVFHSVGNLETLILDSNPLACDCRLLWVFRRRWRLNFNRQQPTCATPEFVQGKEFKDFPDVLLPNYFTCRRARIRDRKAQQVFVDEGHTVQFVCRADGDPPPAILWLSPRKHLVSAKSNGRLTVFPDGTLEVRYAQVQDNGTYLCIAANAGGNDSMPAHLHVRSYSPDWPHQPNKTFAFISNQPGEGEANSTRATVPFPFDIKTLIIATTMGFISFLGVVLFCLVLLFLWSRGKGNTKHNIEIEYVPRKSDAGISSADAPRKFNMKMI
Kind of experiment: IP. The protocol: (§1) To perform the immunoprecipitation, COS-1 cells expressing Sp35, fused to a hemaglutinin (HA) tag on the N-terminus, were produced by transiently transfecting COS-1 cells with a DNA construct which expresses the full-length Sp35 protein with an HA tag. Cells were harvested 48 hr after transfection and were lysed in 1 ml lysis buffer (50 mM HEPES, pH 7.5, 150 mM NaCl, 1.5 mM MgCl₂, 1 mM EGTA, 1% Triton X-100 and 10% glycerol) for 30 min at 4° C. After centrifugation at 14,000×g for 15 min, the supernatants were incubated with ProteinA/G-Sepharose beads (Santa Cruz) at 4° C. for 1 hr, and then incubated at 4° C. for 1 hr with either the 1A7 or the 2F3 anti-Sp35 murine monoclonal antibodies. The beads were washed 3 times with lysis buffer, boiled in Laemmli sample buffer, subjected to 4-20% SD S-PAGE, and analyzed by Western blotting using an antibody which recognizes the HA tag. As shown on the SDS-PAGE gel, monoclonal antibodies 1A7 and 2F3, immunoprecipitated human and murine Sp35 (FIG. 1). […] Similarly, monoclonal antibodies 1G7, 2B10, 2F3, 3P4C2.2D2, 3P4C8.2G9, Li01, Li03, Li05, Li06, Li07, Li08, Li11, Li12, 7P1D5.1G9 and 3B5.2 immunoprecipitate human or mouse or human and mouse Sp35 (See Table 3B and 3C). Additionally, Li08 immunoprecipitates AP-Sp35 and monoclonal antibodies 1B6.4 and 3E3.1 immunoprecipitate endogenous Sp35 (See Table 3B).

Experiment [2] deals with T2, human Sp35 protein expressed on transfected cells (human, UniProt Q96FE5 40-620).
T2 construct: also called huSp35; hLINGO-1
T2 sequence: T1 sequence
Kind of experiment: IHC, transfected cells.

The target in experiment [3] is T3, Sp35-Fc fusion protein (human Sp35 residues 1-532 fused to hinge and Fc of human IgG1) (human, UniProt Q96FE5 40-538).
T3 construct: ran as a dimer under non-reducing conditions; also called LINGO-1-Ig; not shown: hinge and Fc region of human IgG1
T3 sequence: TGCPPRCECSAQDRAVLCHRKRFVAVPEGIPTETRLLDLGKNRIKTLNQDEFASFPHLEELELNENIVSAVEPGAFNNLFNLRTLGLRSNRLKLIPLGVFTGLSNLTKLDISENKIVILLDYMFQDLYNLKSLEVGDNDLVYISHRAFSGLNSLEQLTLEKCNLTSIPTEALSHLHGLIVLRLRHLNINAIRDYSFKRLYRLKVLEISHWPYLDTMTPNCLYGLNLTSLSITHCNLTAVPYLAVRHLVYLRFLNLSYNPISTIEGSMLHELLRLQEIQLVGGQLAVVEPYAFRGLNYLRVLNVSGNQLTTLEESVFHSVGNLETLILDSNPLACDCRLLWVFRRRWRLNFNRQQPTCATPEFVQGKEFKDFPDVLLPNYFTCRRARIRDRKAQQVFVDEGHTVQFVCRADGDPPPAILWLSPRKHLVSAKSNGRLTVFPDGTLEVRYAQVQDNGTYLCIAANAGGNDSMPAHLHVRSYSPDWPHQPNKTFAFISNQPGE
Kind of experiment: ELISA. The method, then:
In order to determine which regions of the Sp35 polypeptide were bound by the various hybridoma- and phage display-derived monoclonal antibodies produced in Example 2, an ELISA assay was performed using a panel of truncated Sp35 polypeptides, each fused to the hinge and Fc regions of IgG1 by the methods described in Example 1. […] Ovalbumin and BSA were used as controls. […] The affinity of these latter antibodies for mouse and rat Sp35 was restored to the level seen using human Sp35 when amino acid 419 of the mouse or rat Sp35 is changed from histidine (H) to arginine (R). Arginine is the amino acid at position 419 in human Sp35. […] AP substrate was then developed by 10 mg/ml 4NPP in 0.1 M Glycine, 1 mM MgCl₂, 1 mM ZnCl₂, pH 10.5, and read at O.D. 405.
(In general: ELISA stands for enzyme-linked immunosorbent assay.)

In experiment [4] the target is T2, human Sp35 protein expressed on …. Put plainly: FACS, stable CHO.
Experiment [5] deals with T4, mouse Sp35 protein expressed on transfected cells (mouse, UniProt Q9D1T0 36-614).
T4 construct: whole, on cells; also called mSp35; mLINGO-1
T4 sequence (looked up): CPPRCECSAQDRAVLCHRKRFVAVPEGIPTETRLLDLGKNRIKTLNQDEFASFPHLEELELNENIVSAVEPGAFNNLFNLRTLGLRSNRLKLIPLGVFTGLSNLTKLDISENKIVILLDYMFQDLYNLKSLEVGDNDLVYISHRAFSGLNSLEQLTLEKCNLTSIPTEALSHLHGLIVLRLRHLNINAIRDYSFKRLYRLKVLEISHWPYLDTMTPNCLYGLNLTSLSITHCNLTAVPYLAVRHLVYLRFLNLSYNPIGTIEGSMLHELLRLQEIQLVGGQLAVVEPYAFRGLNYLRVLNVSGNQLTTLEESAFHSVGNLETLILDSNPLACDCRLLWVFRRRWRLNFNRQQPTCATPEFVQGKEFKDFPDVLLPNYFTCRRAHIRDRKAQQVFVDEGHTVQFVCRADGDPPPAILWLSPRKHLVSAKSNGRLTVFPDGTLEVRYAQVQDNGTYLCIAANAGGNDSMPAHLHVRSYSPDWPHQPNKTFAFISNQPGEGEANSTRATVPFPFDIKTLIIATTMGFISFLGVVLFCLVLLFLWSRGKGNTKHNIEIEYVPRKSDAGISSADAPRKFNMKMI
Kind of experiment: FACS, stable CHO.

The target of the next experiment is T5, Ig region of Sp35 (Homo sapiens (Human), UniProt Q96FE5 423-538, limits assumed).
T5 sequence: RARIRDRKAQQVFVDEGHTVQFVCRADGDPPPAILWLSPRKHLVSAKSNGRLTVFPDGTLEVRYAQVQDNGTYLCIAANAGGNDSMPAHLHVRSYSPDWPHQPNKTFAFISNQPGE
Kind of experiment: ELISA.

The target in experiment [6] is T6, mouse Sp35 in cell lysate (immunoprecipitation, Western) (mouse, UniProt Q9D1T0 36-614, limits assumed).
T6 construct: also called mSp35; mLINGO-1
T6 sequence (looked up): T4 sequence (looked up)
Put plainly: IP. The protocol: as §1

In experiment [7] the target is T6, mouse Sp35 in cell lysate …. Put plainly: IP. This is another data set of the same source.
Experiment [8] concerns the target mouse Sp35 protein expressed on transfected cells (mouse) (UniProt Q9D1T0). Kind of experiment: FACS, stable CHO. On the technique in general: A flow cytometer gives signals particle by particle.

Changes are numbered by the printed parent chain. Where two headings read alike, the source gives them in different places.

We go through 8 molecules from patent US20210395360A1 (published 2021).

B1: 2F3 monoclonal antibody (antibody, mouse IgG2a, V domains shown)
VH: EVKLEESGGGLVQPGGSMKLSCAASGFTFSDAWLDWVRQSPEKGLEWVAEIRSKANNHATNYAESVKGRFTISRDDSKSSVYLQMNSLRAEDTGIYFCTPSFAYWGQGTTVTVSS
VL: DIQMTQSPASLSASVGETVTITCRASGNIYNYLAWFQQKQGKSPQLLVYNAKTLPDGVPSRFSGSGSGTQYFLKINSLQPEDFGSYYCQHFWAIPYTFGGGTKLEIK
notes: murine IgG2a
Regarding B1, the binding result in experiment [1], in experiment [2] and in experiment [3] was “binds” in each case.

B2: 1A7 Fab (Fab, V domains shown)
VH: QVQLVQSGPELKKPGETVKISCKASGYTFTNYGMNWVKQAPGKGLKWMGWINTDTGEPTYTEDFQGRFAFSLETSASTVYLQFNNLKNEDTATYFCAREGVHFDYWGQGTTVTVSS
VL: QIVLTQSPAIMSASPGEKVTMTCSASSSVSYMHWYQQKSGTSPKRWIYDTSKLASGVPARFSGSGSGTSYSLTISSMEAEDAATYYCQQWSSNPFTFGSGTKLEIK
notes: Fab of murine IgG1/kappa 1A7
Consider B2, for which, in experiment [4], the “FACS on stable CHO” value was approximately 1 nM.

B3: 3B5.2 monoclonal antibody (ATCC PTA-8106) (antibody, mouse IgG1, V domains shown)
VH: QVQLQQPGAELVRPGTSVKLSCRASGYTFTSYWMHWVKQRPGQGLEWIGVIDPSDSYTNYNQKFRGKATLTVDTSSSTAYMQLSSLTSEDSAVYYCARPYYGSHWFFDVWGTGTTVTVSS
VL: B2 VL with S28R, M32V, I47L, K52N, S62G, S64N, S92T, F95P, S99G
notes: murine IgG1/kappa; VL is named for 3B5.2; also called 3B5.5
For B3, the “FACS on stable CHO” value in [5] is 0.4 nM; in experiment [4], less than 0.4 nM. In addition, in the experiment with Ig region of Sp35, the binding result is on record as “no binding”.

B4: 30-B01 (Li11) Fab (Fab, V domains shown)
VH: EVQLLESGGGLVQPGGSLRLSCAASGFTFSSYAMYWVRQAPGKGLEWVSSISTSGGYTGYADSVKGRFTISRDNSKNTLYLQMNSLRAEDTAVYYCARDTSDNDYYYMDVWGKGTTVTVSS
VL: DIQMTQSPSSVSAPIGDRVTITCRASQEIANYLAWYQQKPGKAPKLLIYDTYTLQTDVPPRFSGSGSGTDFTLTISSLQPEDTATYFCQQADIFPLSFGGGTKVEIK
notes: human, kappa; also called Li011; Dli11
For the molecule B4, the binding result in [6] was “binds”.

B5: 80-A08 (Dli33) Fab (Fab, V domains shown)
VH: EVQLLESGGGLVQPGGSLRLSCAASGFTFSIYPMFWVRQAPGKGLEWVSWIGPSGGITKYADSVKGRFTISRDNSKNTLYLQMNSLRAEDTATYYCAREGHNDWYFDLWGRGTLVTVSS
VL: DIQMTQSPGTLSLSPGERATLSCRASQSVSSYLAWYQQKPGQAPRLLIYDASNRATGIPARFSGSGSGTEFTLTISSLQSEDFAVYYCQQYDKWPLTFGGGTKVEIK
notes: human
For the molecule B5, in experiment [7], the binding result is reported as “binds”.

B6: 30-C12 (Li01) Fab (Fab, V domains shown)
VH: EVQLLESGGGLVQPGGSLRLSCAASGFTFSKYQMTWVRQAPGKGLEWVSSIYPSGGNTVYADSVKGRFTISRDNSKNTLYLQMNSLRAEDTAVYYCASGTTEAVFDYWGQGTLVTVSS
VL: DIQMTQSPSSLSASVGDRVTITCQASQDISNYLNWYQQKPGKAPKLLIYDASNLETGVPSRFSGSGSGTDFTLTISSLQPEDFATYYCQQADRFPAVTFGGGTKVEIK
notes: human, kappa; also called Dli01
Take B6: the binding result in [1] and in [6] was “binds” each time.

B7: D05 (full-length antibody with Li05 variable region) (antibody, V domains shown)
VH: EVQLLESGGGLVQPGGSLRLSCAASGFTFSAYAMGWVRQAPGKGLEWVSSIVSSGGYTDYADSVKGRFTISRDNSKNTLYLQMNSLRAEDTAVYYCAREGDHNAFDIWGQGTMVTVSS
VL: QSVLTQPPSVSVAPGQTARISCGGDNIGSKSVHWYQQRPGQAPVLVVYDDYDRPSGIPERFSGSNSGDTAILTITRVEVGDEADFYCQVRDSRTEERVFGGGTKVTVL
For B7, the FACS on stable CHO in experiment [8] came to 5.5 nM.

B8: 80-D02 (Dli34) Fab (Fab, V domains shown)
VH: EVQLLESGGGLVQPGGSLRLSCAASGFTFSNYEMYWVRQAPGKGLEWVSGIYSSGGITVYADSVKGRFTISRDNSKNTLYLQMNSLRAEDTAVYYCARAAILDWYFDLWGRGTLVTVSS
VL: DIQMTQSPSSLSASVGDRVTITCHASQDISNYLSWYQQKPGKAPKLLIYDAFNLETGVPSRFSGSGSGTDFTFTISSLQPEDFATYYCQHYDNLPFTFGPGTRVAIR
notes: human
B8: in experiment [7], the binding result was “binds”.
